How the values were obtained:
Experiment in all cases: cell-based or functional assay
[1] = biological target: EpCAM (Epithelial Cell Adhesion Molecule) (human) (UniProt P16422)
[2] = biological target: SDC1 (Syndecan 1) (human) (UniProt P18827)
[3] = biological target: TM4SF1 (Transmembrane 4 L six family member 1) (human) (UniProt P30408)
[4] = biological target: TNFRSF12A (TNF receptor superfamily member 12A) (human) (UniProt Q9NP84)
UniProt Q9NP84, sequence (Q9NP84 28-129 limits assumed): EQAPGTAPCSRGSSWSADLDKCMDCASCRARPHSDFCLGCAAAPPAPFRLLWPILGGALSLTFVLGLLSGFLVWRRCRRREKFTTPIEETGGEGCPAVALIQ

UniProt P16422, sequence (P16422 24-314): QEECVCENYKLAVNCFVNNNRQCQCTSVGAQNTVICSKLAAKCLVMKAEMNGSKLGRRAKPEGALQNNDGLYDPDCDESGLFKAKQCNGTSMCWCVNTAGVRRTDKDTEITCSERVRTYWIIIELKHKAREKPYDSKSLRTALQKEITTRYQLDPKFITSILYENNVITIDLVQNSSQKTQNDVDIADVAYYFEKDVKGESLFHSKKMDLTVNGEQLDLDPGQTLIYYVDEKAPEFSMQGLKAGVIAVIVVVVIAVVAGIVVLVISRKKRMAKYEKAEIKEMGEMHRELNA
UniProt P30408, sequence (P30408 whole entry): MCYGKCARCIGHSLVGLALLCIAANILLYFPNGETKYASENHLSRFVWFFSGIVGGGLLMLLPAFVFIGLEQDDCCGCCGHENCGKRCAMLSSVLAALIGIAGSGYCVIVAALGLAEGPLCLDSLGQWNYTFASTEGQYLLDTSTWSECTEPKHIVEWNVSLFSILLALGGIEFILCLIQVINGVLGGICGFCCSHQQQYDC
UniProt P18827, sequence (P18827 23-310 L136Q limits assumed): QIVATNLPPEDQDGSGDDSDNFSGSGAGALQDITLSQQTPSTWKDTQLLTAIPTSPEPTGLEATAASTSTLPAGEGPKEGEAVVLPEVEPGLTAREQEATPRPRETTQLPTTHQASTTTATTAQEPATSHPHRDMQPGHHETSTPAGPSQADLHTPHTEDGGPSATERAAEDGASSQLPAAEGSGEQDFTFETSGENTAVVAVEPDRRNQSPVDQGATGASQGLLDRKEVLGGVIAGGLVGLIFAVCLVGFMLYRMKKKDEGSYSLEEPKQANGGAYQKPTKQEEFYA

## anti-EpCAM antibody (PE-anti-human EpCAM Antibody, Miltenyi Biotec)
[1]
  PANC1 cell collection ratio [%]: 49%
  PC3 cell collection ratio [%]: 42%

## anti-SDC1 antibody (PE-anti-human SDC1 Antibody, Biolegend)
[2]
  PC3 cell collection ratio [%]: 64%

## anti-TM4SF1 antibody (Human TM4SF1 Phycoerythrin MAb, R&D systems)
[3]
  PANC1 cell collection ratio [%]: 66%
  PC3 cell collection ratio [%]: 76%

## anti-TNFRSF12A antibody (PE anti-human CD266 (Fn14, TWEAK R) Antibody, Biolegend)
[4]
  PANC1 cell collection ratio [%]: 74.1%
  PC3 cell collection ratio [%]: 48%
